# From patent US7618943B2, “Fusion polypeptides, and use thereof in antivascular tumor therapy” (Oncoscience AG, priority 2003, dated 2009)
# “Also recorded” adds a separate entry of the source.
# T1: matrix metalloproteinase-2 (MMP-2) (Homo sapiens, UniProt P08253)
# T1 sequence (P08253 110-660): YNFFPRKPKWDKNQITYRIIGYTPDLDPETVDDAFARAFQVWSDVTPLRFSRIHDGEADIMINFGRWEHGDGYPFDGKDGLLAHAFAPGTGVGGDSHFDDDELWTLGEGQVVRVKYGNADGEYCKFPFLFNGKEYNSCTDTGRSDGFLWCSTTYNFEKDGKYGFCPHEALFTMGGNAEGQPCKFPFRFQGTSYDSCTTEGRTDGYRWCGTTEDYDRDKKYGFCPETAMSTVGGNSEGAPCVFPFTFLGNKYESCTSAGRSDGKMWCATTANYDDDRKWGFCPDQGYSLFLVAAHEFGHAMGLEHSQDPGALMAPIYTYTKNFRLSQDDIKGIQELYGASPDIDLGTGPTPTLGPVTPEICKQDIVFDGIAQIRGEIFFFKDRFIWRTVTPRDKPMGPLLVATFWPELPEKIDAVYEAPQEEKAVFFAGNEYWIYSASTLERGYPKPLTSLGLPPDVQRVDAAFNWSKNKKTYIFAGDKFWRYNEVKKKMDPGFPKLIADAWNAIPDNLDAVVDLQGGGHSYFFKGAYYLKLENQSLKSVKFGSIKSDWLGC
# T2: activation of factor X to factor Xa via factor VIIa (Homo sapiens, UniProt P08709)
# T2 construct: 50 nM recombinant FVIIa (Novo-Nordisk) in TBS-BSA; purchased Novo-Nordisk (FVIIa); Enzyme Research Laboratories (FX)
# T2 sequence (P08709 61-212 limits assumed): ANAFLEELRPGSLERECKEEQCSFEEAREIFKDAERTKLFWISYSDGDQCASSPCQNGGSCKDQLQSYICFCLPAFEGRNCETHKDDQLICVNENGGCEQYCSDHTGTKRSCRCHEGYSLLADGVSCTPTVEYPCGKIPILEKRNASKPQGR
# T2 sequence (P08709 213-466 limits assumed): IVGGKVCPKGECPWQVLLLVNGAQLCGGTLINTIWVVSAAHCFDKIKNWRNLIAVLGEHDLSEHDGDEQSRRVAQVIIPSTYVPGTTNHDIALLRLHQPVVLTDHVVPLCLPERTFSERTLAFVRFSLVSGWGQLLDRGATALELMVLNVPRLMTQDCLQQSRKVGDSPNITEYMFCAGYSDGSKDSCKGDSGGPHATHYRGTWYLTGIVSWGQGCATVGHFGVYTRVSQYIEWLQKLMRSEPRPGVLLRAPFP
# Key:
# integrin αvβ3 = integrin αvβ3 (Homo sapiens, UniProt P05106+P06756); test: ELISA binding to immobilized purified αvβ3
# integrin αvβ3, sequence (P06756 31-889 limits assumed): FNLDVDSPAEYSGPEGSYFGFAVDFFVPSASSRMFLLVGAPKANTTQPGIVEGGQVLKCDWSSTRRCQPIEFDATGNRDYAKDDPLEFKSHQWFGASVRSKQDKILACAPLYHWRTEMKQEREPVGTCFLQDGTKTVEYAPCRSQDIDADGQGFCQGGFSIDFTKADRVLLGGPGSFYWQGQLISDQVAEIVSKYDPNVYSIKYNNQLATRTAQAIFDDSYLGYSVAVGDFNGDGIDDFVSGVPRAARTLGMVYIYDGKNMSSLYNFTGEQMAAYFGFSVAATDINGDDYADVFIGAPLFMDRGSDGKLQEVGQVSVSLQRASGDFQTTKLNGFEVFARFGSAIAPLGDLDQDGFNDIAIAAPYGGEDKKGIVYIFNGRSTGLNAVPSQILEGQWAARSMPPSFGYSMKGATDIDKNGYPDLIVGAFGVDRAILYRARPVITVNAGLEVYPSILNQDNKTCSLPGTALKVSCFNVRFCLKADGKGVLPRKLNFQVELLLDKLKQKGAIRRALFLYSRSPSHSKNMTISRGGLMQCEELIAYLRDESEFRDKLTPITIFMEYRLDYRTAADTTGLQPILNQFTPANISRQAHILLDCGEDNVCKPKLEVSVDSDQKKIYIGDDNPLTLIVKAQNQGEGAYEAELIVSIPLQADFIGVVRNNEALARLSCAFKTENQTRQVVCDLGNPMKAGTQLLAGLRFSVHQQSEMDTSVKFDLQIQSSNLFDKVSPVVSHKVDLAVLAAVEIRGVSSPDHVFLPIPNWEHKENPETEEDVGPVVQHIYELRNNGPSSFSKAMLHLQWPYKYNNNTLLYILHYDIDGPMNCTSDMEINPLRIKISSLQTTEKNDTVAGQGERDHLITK
# integrin αvβ3, sequence (P06756 891-1048 limits assumed): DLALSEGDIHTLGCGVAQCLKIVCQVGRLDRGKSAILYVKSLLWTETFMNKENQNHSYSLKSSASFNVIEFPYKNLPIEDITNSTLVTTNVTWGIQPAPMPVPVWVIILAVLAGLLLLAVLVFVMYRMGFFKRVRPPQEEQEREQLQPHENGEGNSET
# integrin αvβ3, sequence (P05106 27-788): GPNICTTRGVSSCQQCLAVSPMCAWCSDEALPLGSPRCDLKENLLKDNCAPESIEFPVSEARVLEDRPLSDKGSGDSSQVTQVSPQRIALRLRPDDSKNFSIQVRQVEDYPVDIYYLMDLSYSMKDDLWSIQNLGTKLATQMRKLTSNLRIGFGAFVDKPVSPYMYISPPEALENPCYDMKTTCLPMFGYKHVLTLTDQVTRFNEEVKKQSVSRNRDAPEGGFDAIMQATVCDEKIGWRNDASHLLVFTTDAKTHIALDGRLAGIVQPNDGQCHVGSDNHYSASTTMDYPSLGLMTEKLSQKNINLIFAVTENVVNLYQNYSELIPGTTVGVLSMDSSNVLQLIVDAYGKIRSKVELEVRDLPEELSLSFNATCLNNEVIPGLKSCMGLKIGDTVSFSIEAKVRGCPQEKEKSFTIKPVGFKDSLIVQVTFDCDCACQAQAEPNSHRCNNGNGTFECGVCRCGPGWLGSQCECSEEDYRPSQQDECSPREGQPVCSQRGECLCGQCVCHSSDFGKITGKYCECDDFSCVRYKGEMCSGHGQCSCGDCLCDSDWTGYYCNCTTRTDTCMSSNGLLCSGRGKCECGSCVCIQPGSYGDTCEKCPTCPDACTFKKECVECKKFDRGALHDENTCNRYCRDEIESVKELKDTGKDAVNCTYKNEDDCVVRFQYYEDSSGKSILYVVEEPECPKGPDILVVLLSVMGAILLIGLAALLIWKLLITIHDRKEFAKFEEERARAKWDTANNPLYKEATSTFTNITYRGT
# Protocol: FIG. 4: Binding of tTF, tTF-RGD and tTF-NGR to integrin αvβ3. The binding of 0.1 μM tTF, tTF-RGD and tTF-NGR to immobilized αvβ3 was quantified with a polyclonal antibody against human TF (American Diagnostica) in an ELISA. The results are presented as median and interquartile range. The differences in binding between tTF-RGD and tTF or between tTF-NGR and tTF were statistically significant (p<0.001, Mann-Whitney test).
# human endothelial cells = test: FACS binding of biotinylated proteins to endothelial cells in suspension; assay type: cell-based; details: 0.1 μM tTF-RGD, 1 μM competing peptide
# Protocol: FIG. 6: Binding of tTF and tTF-RGD to human endothelial cells. A: FACS analysis of endothelial cells incubated with 0.1 μM tTF (2) or with 0.1 μM tTF-RGD (3) for 60 min at 4° C. […] Curves 1 in A and B show the negative control.
# Next the specific binding of tTF-RGD to αvβ3 on endothelial cells was evaluated. For this, the differential binding of biotinylated tTF and tTF-RGD to endothelial cells in suspension was analysed by FACS (Fluorescence Activated Cell Sorting). The fact that all endothelial cells held in tissue culture are activated, i.e. express αvβ3 molecules, is utilized experimentally. This can be detected by various immunohistochemical methods. A cultivated endothelial cell thus corresponds, in relation to its expression pattern with respect to αvβ3 to a tumor endothelial cell. Accordingly, a cultivated endothelial cell can be used as a model system for the specific binding of substances to tumor endothelial cells and also permits predictions to be made concerning the expected toxicity.
# Streptavidin-phycoerythrin was used as the detection method. The measured fluorescence intensity for tTF-RGD was higher by a factor of 8 than for tTF (FIG. 6A). Furthermore, the binding of 0.1 μM tTF-RGD to endothelial cells was lowered competitively by 75% by the administration of 1 μM of the synthetic peptide GRGDSP (SEQ ID NO:33) (FIG. 6B). […]
# [1] = biological target: T1, matrix metalloproteinase-2 (MMP-2); details: cited from earlier work
# [2] = biological target: T2, activation of factor X to factor Xa via factor VIIa; test: Cofactor activity in activation of FX by FVIIa (Michaelis-Menten analysis, chromogenic FXa readout); assay type: biochemical; details: in the presence of phospholipids
# Protocol: The ability of tTF and of the tTF fusion polypeptides to intensify the specific proteolytic activation of FX via FVIIa in the presence of phospholipids was determined in a slightly modified version of the method described by Ruf (45). For this, 20 μl of each of the following reagents was pipetted in microtiter plates: (a) 50 nM recombinant FVIIa (Novo-Nordisk) in TBS-BSA; (b) 0.16 nM-1.6 μM tTF/tTF fusion polypeptide in TBS-BSA; (c) 25 mM CaCl2 and 500 μM phospholipid vesicle (phosphatidylcholine/phosphatidylserine, 70/30, M/M; Sigma). After 10 min incubation at room temperature, 20 μl of the natural substrate FX (Enzyme Research Laboratories) was added at a concentration of 5 μM. Then a sample was taken by pipette at one-minute intervals and the reaction was stopped by adding 100 mM EDTA solution. The amount of FXa that formed was measured by addition of the chromogenic substrate Spectrozyme FXa in a Microplate Reader by determining the change in absorption at 405 nm and the parameters for the Michaelis-Menten kinetics were analysed by the method described by Ruf. […] The Michaelis constants (Km) found for the fusion polypeptides were in the range 0.12-1.2 nM (FIG. 3), and thus in the lower range that is published for tTF. It can therefore be assumed that the functional activity is unaffected by the fusing of tTF with the peptides.
# [3] = test system: human malignant melanoma (M21); test: M21 melanoma xenograft in athymic nude mice, intravenous therapy; assay type: in vivo
# Protocol: The vertical arrows indicate the times of injection with the respective substances.
# The vertical arrows indicate the times of the injections with the respective substances.
# (§1) The tTF-RGD and tTF-NGR fusion proteins were evaluated with respect to their effects and side-effects on xenografts of human tumors in athymic nude mice. The models established in our laboratory were used for this (33, 34). The cell lines CCL185 (human adenocarcinoma of the lung) and M-21 (human melanoma) were injected subcutaneously into the flank of male BALB/c nude mice (9-12 weeks old). On attaining a tumor volume of about 50-100 mm^3 (CCL185) or 400-600 mm^3 (M−21), the mice were assigned to four groups at random. Group 1 received only physiological saline solution (NaCl), group 2 tTF, group 3 tTF-RGD, and group 4 tTF-NGR (in each case 1.5-2.0 mg/kg body weight (BW) of the protein). The injections were made in the caudal vein of the animals at intervals of 1-3 days (depending on the growth rate of the particular cell line). Considerable therapeutic activity of the fusion proteins was observed.
# [4] = test system: human lung carcinoma (CCL185); test: CCL185 lung carcinoma xenograft in athymic nude mice, intravenous therapy; assay type: in vivo
# Description: FIG. 7: Inhibition of a human lung carcinoma (CCL185) growing as a xenograft in athymic nude mice by intravenous therapy with tTF fusion proteins (tTF-RGD, n=6; tTF-NGR, n=6) compared with tumor growth with infusion of physiological saline solution (NaCl, n=8) or tTF (n=1). The vertical arrows indicate the times of injection with the respective substances.
# c: Inhibition of a human lung carcinoma (CCL185) growing as a xenograft in athymic nude mice by intravenous therapy with tTF fusion proteins (tTF-RGD, n=11) compared with the growth of the tumors in infusion of physiological saline solution (NaCl, n=10) or tTF (n=5). The vertical arrows indicate the times of the injections with the respective substances.
# as §1
# [5] = test system: human fibrosarcoma (HT1080); test: HT1080 fibrosarcoma xenograft in BALB/c nude mice, intravenous therapy; assay type: in vivo; details: HT1080 tumors
# Description: b: Inhibition of a human fibrosarcoma (HT1080) growing as a xenograft in athymic nude mice by intravenous therapy with tTF fusion proteins (tTF-RGD, n=12) compared with the growth of the tumors with infusion of physiological saline solution (NaCl, n=15) or tTF (n=14). The vertical arrows indicate the times of the injections with the respective substances.
# The antitumor activity of the tTF-RGD fusion protein was also investigated in BALB/c nude mice with fibrosarcomas (HT1080). These tumors grow rapidly and are well-vascularized. […] This effect lasted until the end of the experiment on day 7 (P=0.021 for tTF-RGD relative to the buffer control (physiological saline solution), P=0.005 for tTF-RGD relative to tTF).
# tumor blood vessels = test: Macroscopy and histology of tumors after injection (thrombosis induction in tumor vessels, necrosis); assay type: in vivo, mice
# Protocol: FIG. 9: Macroscopic in vivo photograph of a tumor-bearing mouse 20 min after injection of the tTF-NGR fusion protein (A, left half of the picture) or NaCl (A, right half of the picture). […] After 60 min, the two mice were exsanguinated, the tumor was excised in toto and examined histologically. […] In contrast, the NaCl-treated tumor appears to be vital (C).
# FIG. 10: Histology of the melanoma tumor 1 hour after intravenous injection of tTF-RGD (A and B), tTF-NGR (C and D) and common salt (E and F) in the caudal vein of the tumor-bearing nude mouse. […] The photographs are of representative areas of the tumors (A, C and E: 200× magnification, B, D and F 400× magnification; HE staining (staining described e.g. in H. C. Burck, Histologische Technik-Leitfaden für die Herstellung mikroskopischer Präparate in Unterricht und Praxis, 5th edition, Thieme Verlag, Stuttgart 1982, pages 109 ff.).
# FIG. 35: Macrograph of a mouse bearing an M21 tumor at the end of treatment (day 7) with tTF-RGD fusion protein (A, C) or NaCl (B, D).
# To verify the mechanism of action of thrombosis induction in tumor vessels, the following experiment was carried out: the human melanoma cell line was injected into the flank of two male BALB/c nude mice. On attaining a tumor size of approx. 500 mm^3, 2.0 mg/kg BW tTF-NGR or NaCl was injected into the caudal vein. […] After 60 min the mice were exsanguinated, the tumor was excised in toto and investigated histologically. […] In contrast, the tumor treated with NaCl appears to be vital (FIG. 9C).
# [6] = test system: normal tissue such as heart, kidney, liver and lung; test: Histology of normal organs after injection (clotting, necrosis, organ toxicity); details: repeated high doses (4 mg/kg BW)
# [7] = melanoma tumor 1 hour after intravenous injection, HE staining
molecule,measurement,setting,value
GRGDSP: synthetic peptide with the sequence GRGDSP (SEQ ID NO:33) from the company Gibco,p of inhibition of tTF-RGD binding (Mann-Whitney test),integrin αvβ3; both RGD peptide concentrations (1-10 μM),< 0.001
same,competitive inhibition of binding of tTF-RGD to immobilized αvβ3,"integrin αvβ3; tTF-RGD 0.1 μM, peptide 1-10 μM",competitively inhibits; also recorded: inhibited significantly
same,reduction in binding of tTF-RGD to endothelial cells,human endothelial cells,75%
TTHWGFTL,inhibition of MMP-2,[1],selective and potent inhibition
"tTF: truncated human tissue factor, N-terminal 218 amino acids of TF (SEQ ID NO:2) (protein, listed as Homo sapiens, Amino acid sequence of tTF1-218) SGTTNTVAAYNLTWKSTNFKTILEWEPKPVNQVYTVQISTKSGDWKSKCFYTTDTECDLTDEIVKDVKQTYLARVFSYPAGNVESTGSAGEPLYENSPEFTPYLETNLGQPTIQSFEQVGTKVNVTVEDERTLVRRNNTFLSLRDVFGKDLIYTLYYWKSSSSGKKTAKTNTNEFLIDVDKGENYCFSVQAVIPSRTVNRKSTDSPVECMGQEKGEFR",functional activity (cofactor activity in FX activation via FVIIa),[2],functionally active
same,Mean tumor volume Day 0,"[3]; M21 tumors, Day 0 (baseline)",558 ± 47 mm^3
same,Mean tumor volume Day 7,"[3]; M21 tumors, Day 7",931 ± 147 mm^3
same,Mean tumor volume Day 0,"[4]; CCL185 tumors, Day 0 (baseline)",44 ± 8 mm^3
same,Mean tumor volume Day 7,"[4]; CCL185 tumors, Day 7",764 ± 148 mm^3
same,Mean tumor volume Day 0,[5]; Day 0 (baseline),1751 ± 269 mm^3
same,Mean tumor volume Day 7,[5]; Day 7,2335 ± 398 mm^3
"tTF-NGR: fusion polypeptide tTF-GNGRAHA (SEQ ID NO:4) (protein, Amino acid sequence of tTF-GNGRAHA) SGTTNTVAAYNLTWKSTNFKTILEWEPKPVNQVYTVQISTKSGDWKSKCFYTTDTECDLTDEIVKDVKQTYLARVFSYPAGNVESTGSAGEPLYENSPEFTPYLETNLGQPTIQSFEQVGTKVNVTVEDERTLVRRNNTFLSLRDVFGKDLIYTLYYWKSSSSGKKTAKTNTNEFLIDVDKGENYCFSVQAVIPSRTVNRKSTDSPVECMGQEKGEFRGNGRAHA",histology of tumor blood vessels (thrombus formation),tumor blood vessels; [7],microscopically visible thrombus formation in the blood vessels; also recorded: blood vessels appear to be thrombolytically occluded
same,histology: tumor necrosis in supply region of occluded vessel,tumor blood vessels; [7],Extensive tumor necroses
same,macroscopic picture of the tumor in vivo,"tumor blood vessels; melanoma, 20 min after 2.0 mg/kg BW into the caudal vein",bluish-livid coloration of the tumor
same,appearance of the excised tumor,"tumor blood vessels; melanoma, excised 60 min after 2.0 mg/kg BW",hemorrhagic imbibition of the tumor
same,binding to the αvβ3 integrin in ELISA,"integrin αvβ3; 0.1 μM protein, immobilized αvβ3",demonstrated
same,effect on tumor growth,"[3]; M21 xenograft, intravenous therapy, compared with NaCl or tTF",Inhibition and partial remission
same,visible clot formation or organ toxicity,[6],did not lead to any visible clot formation or organ toxicity
same,effect on tumor growth,"[4]; CCL185 xenograft, intravenous therapy, compared with NaCl or tTF",Inhibition
